In test [1] the target is YidC cysteine mutant labelled with Cy3 at position 454 (E. coli) (UniProt P25714). Kind of test: other fluorescence titration; 60 nM Cy3-labelled YidC in 20 mM Hepes/KOH pH 7.5, 100 mM KCl, 10 mM MgOAc2, 5% glycerol, 0.1% DDM mixed 1:1 with 0.6 nM to 19.2 µM 70S ribosomes; 10 min at 20°C; fluorescence intensity on a Monolith NT.115; four repeats.
Test [2] has as its target xFOc (subunit c of the ATP synthase with cysteines C21 and C65), expressed in E. coli C43 membranes (E. coli) (UniProt P68699). In words: cross-linking; E. coli C43 membranes expressing xFOc oxidised with copper-1,10-phenanthroline (CuPh), with or without DTT; SDS-PAGE, western blotting with FOc antibody. (In general: In western blotting, separated proteins are transferred to a membrane and probed.)

Test [3] addresses xFOc (subunit c of the ATP synthase with cysteines C21 and C65), in vitro translated (E. coli) (UniProt P68699). Kind of test: cross-linking; xFOc translated in vitro and inserted into proteoliposomes (large scale); mild oxidising conditions (lipids, atmospheric oxygen), no CuPh; non-reducing SDS-PAGE, phosphor imaging; c10-ring with HTL, SecYEG or without YidC, not with YidC alone.

The source of these data is PMC5095914.

The Kd is the constant that tells how readily two partners part at equilibrium. Low values mean a tighter complex, high ones a looser complex. As usually defined, the stoichiometry N is a count of units in the complex or per binding partner.

Consider 70S ribosomes (complex), for which the Kd in test [1] came to 161 nM. On to “xFOc (subunit c of the ATP synthase with cysteines C21 and C65), expressed in E. coli C43 membranes (from UniProt P68699 1-79) (natural protein)”, for which the stoichiometry N in test [2] turned out to be 10. For “xFOc (subunit c of the ATP synthase with cysteines C21 and C65), in vitro translated (from UniProt P68699 1-79) (natural protein)”, the stoichiometry N in test [3] was 10.
